Laboratory results published in PMC10153262 (bioRxiv, 2023).

Columns and labels:
Test in all cases: pull-down
[1] = target: Myristoylated GINIP (myr-GINIP), C-terminally His-tagged (human, UniProt Q9UPV7 1-400, myristoylated (co-expression with N-myristoyl transferase))
GINIP ∆N16 = GINIP ∆N16 (human, UniProt Q9UPV7 17-400)
[2] = target: GINIP WT, C-terminally His-tagged (pET21a(+)-GINIP-His) (human, UniProt Q9UPV7 1-400)

Measured: binding result

GINIP ∆N16, sequence (Q9UPV7 17-400): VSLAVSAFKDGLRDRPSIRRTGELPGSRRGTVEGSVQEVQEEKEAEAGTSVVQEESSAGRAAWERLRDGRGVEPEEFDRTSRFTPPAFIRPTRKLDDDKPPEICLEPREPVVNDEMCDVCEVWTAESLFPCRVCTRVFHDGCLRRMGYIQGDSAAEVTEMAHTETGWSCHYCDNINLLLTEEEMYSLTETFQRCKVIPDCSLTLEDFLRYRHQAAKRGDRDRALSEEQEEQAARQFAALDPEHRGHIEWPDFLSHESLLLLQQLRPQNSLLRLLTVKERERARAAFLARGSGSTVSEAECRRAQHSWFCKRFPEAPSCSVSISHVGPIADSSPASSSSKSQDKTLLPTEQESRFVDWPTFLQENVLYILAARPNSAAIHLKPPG
Myristoylated GINIP (myr-GINIP), C-terminally His-tagged, sequence (Q9UPV7 whole entry): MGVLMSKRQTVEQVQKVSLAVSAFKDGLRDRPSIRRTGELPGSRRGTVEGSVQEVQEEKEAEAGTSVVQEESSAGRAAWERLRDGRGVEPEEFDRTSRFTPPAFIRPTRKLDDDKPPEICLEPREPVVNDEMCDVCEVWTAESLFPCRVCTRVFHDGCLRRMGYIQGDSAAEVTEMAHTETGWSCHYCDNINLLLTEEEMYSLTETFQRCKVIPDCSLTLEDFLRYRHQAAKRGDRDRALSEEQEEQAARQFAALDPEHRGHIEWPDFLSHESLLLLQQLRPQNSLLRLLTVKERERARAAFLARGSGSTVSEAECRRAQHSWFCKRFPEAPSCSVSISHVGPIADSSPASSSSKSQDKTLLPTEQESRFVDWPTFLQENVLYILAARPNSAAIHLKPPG
GINIP WT, C-terminally His-tagged (pET21a(+)-GINIP-His), sequence (Q9UPV7 whole entry): as above

B1: GST-Gαi3 (natural protein)
chain: MGCTLSAEDKAAVERSKMIDRNLREDGEKAAKEVKLLLLGAGESGKSTIVKQMKIIHEDGYSEDECKQYKVVVYSNTIQSIIAIIRAMGRLKIDFGEAARADDARQLFVLAGSAEEGVMTSELAGVIKRLWRDGGVQACFSRSREYQLNDSASYYLNDLDRISQTNYIPTQQDVLRTRVKTTGIVETHFTFKELYFKMFDVGGQRSERKKWIHCFEGVTAIIFCVALSDYDLVLAEDEEMNRMHESMKLFDSICNNKWFTDTSIILFLNKKDLFEEKIKRSPLTICYPEYTGSNTYEEAAAYIQCQFEDLNRRKDTKEVYTHFTCATDTKNVQFVFDAVTDVIIKNNLKECGLY
binds: all assays above
